IntAct's records for PubMed 22921828

B1: Epidermal growth factor receptor kinase substrate 8 (Homo sapiens), Q12929 (parent)
chain: MNGHISNHPSSFGMYPSQMNGYGSSPTFSQTDREHGSKTSAKALYEQRKNYARDSVSSVSDISQYRVEHLTTFVLDRKDAMITVDDGIRKLKLLDAKGKVWTQDMILQVDDRAVSLIDLESKNELENFPLNTIQHCQAVMHSCSYDSVLALVCKEPTQNKPDLHLFQCDEVKANLISEDIESAISDSKGGKQKRRPDALRMISNADPSIPPPPRAPAPAPPGTVTQVDVRSRVAAWSAWAADQGDFEKPRQYHEQEETPEMMAARIDRDVQILNHILDDIEFFITKLQKAAEAFSELSKRKKNKKGKRKGPGEGVLTLRAKPPPPDEFLDCFQKFKHGFNLLAKLKSHIQNPSAADLVHFLFTPLNMVVQATGGPELASSVLSPLLNKDTIDFLNYTVNGDERQLWMSLGGTWMKARAEWPKEQFIPPYVPRFRNGWEPPMLNFMGATMEQDLYQLAESVANVAEHQRKQEIKRLSTEHSSVSEYHPADGYAFSSNIYTRGSHLDQGEAAVAFKPTSNRHIDRNYEPLKTQPKKYAKSKYDFVARNNSELSVLKDDILEILDDRKQWWKVRNASGDSGFVPNNILDIVRPPESGLGRADPPYTHTIQKQRMEYGPRPADTPPAPSPPPTPAPVPVPLPPSTPAPVPVSKVPANITRQNSSSSDSGGSIVRDSQRHKQLPVDRRKSQMEEVQDELIHRLTIGRSAAQKKFHVPRQNVPVINITYDSTPEDVKTWLQSKGFNPVTVNSLGVLNGAQLFSLNKDELRTVCPEGARVYSQITVQKAALEDSSGSSELQEIMRRRQEKISAAASDSGVESFDEGSSH
partner: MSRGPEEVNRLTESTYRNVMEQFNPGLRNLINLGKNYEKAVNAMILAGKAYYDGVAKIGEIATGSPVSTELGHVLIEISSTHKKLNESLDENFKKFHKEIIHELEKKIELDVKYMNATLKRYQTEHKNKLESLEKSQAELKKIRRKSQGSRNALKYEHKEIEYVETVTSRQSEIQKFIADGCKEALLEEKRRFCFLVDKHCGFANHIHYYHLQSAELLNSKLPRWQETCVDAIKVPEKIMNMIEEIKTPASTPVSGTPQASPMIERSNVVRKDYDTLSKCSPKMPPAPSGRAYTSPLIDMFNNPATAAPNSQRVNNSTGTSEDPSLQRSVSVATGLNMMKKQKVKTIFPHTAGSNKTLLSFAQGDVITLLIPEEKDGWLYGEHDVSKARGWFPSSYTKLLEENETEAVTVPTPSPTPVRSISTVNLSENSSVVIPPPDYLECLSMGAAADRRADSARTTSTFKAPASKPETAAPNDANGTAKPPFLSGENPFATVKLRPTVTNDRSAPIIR
B2: "Secreted effector protein EspF(U)" (Escherichia coli O157:H7), P0DJ88 (parent)
chain: MINNVSSLFPTVNRNITAVYKKSSFSVSPQKITLNPVKISSPFSPSSSSISATTLFRAPNAHSASFHRQSTAESSLHQQLPNVRQRLIQHLAEHGIKPARSMAEHIPPAPNWPAPPPPVQNEQSRPLPDVAQRLVQHLAEHGIQPARNMAEHIPPAPNWPAPPLPVQNEQSRPLPDVAQRLVQHLAEHGIQPARSMAEHIPPAPNWPAPPPPVQNEQSRPLPDVAQRLMQHLAEHGIQPARNMAEHIPPAPNWPAPTPPVQNEQSRPLPDVAQRLMQHLAEHGIQPARNMAEHIPPAPNWPAPTPPVQNEQSRPLPDVAQRLMQHLAEHGINTSKRS
partner: B1 partner

Variants of: B1
Conditions: with bi2l1_human BAIAP2L1, Q9UHR4

| Variant | effect of a mutation on the interaction |
| --- | --- |
| A215W | increasing interaction strength |

Variants of: B2
Conditions: with bi2l1_human BAIAP2L1, Q9UHR4

| Variant | effect of a mutation on the interaction |
| --- | --- |
| W300A | decreasing interaction strength |

Variants of: B2
Conditions: with bi2l1_human BAIAP2L1, Q9UHR4
Remark: another data set of the same source

| Variant | effect of a mutation on the interaction |
| --- | --- |
| W300A | disrupting interaction strength |
